Substitutions are numbered along the chain they refer to.

For assay [1], the target named is T1, human HHLA2 proteins (Acro Biosystems, B77-H52H5) (human, UniProt Q9UM44 23-344).
T1 construct: Bought recombinant protein coated on the ELISA plate; also called B7-H7; B7y
T1 sequence (looked up): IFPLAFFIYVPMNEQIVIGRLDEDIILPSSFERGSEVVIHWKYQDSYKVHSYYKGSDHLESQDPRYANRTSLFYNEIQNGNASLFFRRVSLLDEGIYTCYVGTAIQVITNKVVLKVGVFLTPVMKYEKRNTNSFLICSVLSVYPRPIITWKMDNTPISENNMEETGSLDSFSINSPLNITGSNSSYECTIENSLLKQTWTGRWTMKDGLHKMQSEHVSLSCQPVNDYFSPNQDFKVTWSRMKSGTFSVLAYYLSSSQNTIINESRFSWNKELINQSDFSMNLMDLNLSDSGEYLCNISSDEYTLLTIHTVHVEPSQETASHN
As to the kind of experiment: ELISA, human HHLA2 protein coated.

Assay [2] addresses T2, human HHLA2 on cells (K562-hHHLA2; HCC827) (human, UniProt Q9UM44 23-414).
T2 construct: whole, on cells; also called K562 cells overexpressing human HHLA2; HCC827 cell line highly expressing human HHLA2
T2 sequence (looked up): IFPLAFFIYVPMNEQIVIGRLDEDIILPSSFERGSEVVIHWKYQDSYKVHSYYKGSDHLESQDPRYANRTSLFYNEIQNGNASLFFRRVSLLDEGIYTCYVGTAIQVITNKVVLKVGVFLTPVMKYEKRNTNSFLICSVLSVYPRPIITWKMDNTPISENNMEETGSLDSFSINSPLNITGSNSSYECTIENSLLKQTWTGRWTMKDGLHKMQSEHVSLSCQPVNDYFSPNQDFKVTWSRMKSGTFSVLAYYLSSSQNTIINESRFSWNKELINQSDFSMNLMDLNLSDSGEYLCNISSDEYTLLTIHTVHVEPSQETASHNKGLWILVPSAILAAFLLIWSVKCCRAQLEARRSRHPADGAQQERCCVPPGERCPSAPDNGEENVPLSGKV
As to the kind of experiment: flow cytometry on K562-hHHLA2 cells.

For assay [3], the target named is T2, human HHLA2 on cells (K562-hHHLA2; …). As to the kind of experiment: flow cytometry on HCC827 tumor cells highly expressing human HHLA2. For orientation: Flow cytometry measures light scatter and fluorescence of single cells or particles in a stream.
Assay [4] shares this target. As to the kind of experiment: cell-based or functional assay.

B1: Ab01-91M2 (antibody, V domains shown)
VH: DVQLQESGGGLVQPGGSLRLSCAASGFTFSNYLMGWYRQAPGKERELVAAINSAGYSTVYAESVKGRFTTSRDNAKSMVYLQMNSLKAEDTAVYYCNARYDRWHDYWGQGTQVTVSS
B1: the binding result in assay [1] and in assay [2] was “binds” each time.

B2: Ab01-63M2 (antibody, V domains shown)
VH: DVQLQESGGGLVQPGGSLRLSCAASGFTLDYYVIGWFRQAPGKEREGVSCISSSDGSTYSADSVKGRFTISRDNAENTVYLQMNSLKPEDTAVYYCAARRSPGIEGWCALPFFFGSWGQGTQVTVSS
notes: also called candidate parental antibody Ab01-63M2
By EC50 is commonly meant the concentration that produces a half-maximal response. Read a low EC50 as an effect from little substance. As for B2, the EC50 in assay [3] stood at 0.043 nM. In addition, in assay [4], the “EC50 (nM), promoting the killing effects of NK92MI on target cells (K562 overexpressing human HHLA2)” value stood at 0.125 nM.

B3: Ab01-63Ghm25 (antibody, V domains shown)
VH: B2 VH with D1E, Q5L, D55T, N74T, A75S, E76K, K87R, P88A, Q122L
notes: Humanized or engineered mutant of Ab01-63G4; also called mutant Ab01-63Ghm25
Regarding B3, the binding result in assay [1] is “binds”.

B4: Ab01-63Ghm26 (antibody, V domains shown)
VH: B2 VH with D1E, Q5L, D55T, D62Q, N74T, A75S, E76K, K87R, P88A, Q122L
notes: Humanized or engineered mutant of Ab01-63G4; also called mutant Ab01-63Ghm26
Turning to B4, the binding result in assay [1] was “binds”.

B5: Ab01-63Ghm28 (antibody, V domains shown)
VH: B2 VH with D1E, Q5L, D55T, N74T, A75S, E76K, K87R, P88A, F112E, Q122L
notes: Humanized or engineered mutant of Ab01-63G4; also called mutant Ab01-63Ghm28
B5: in assay [1], the binding result is “binds”.

B6: Ab01-84M2 (antibody, V domains shown)
VH: DVQLQESGGGLVQAGGSLRLSCAASGFPFDDYSIGWFRQAPGKAREGISCISSTHGTTYYTDSVKDRFTITRDNAKNTVYLQMNNLKPEDAAVYYCAAGLDGLACHRRDSGSRYRTQLYDYWGQGTQVTVSS
On to B6, for which the binding result in assay [1] and in assay [2] was “binds” in each case.

B7: Ab01-122M1 (antibody, V domains shown)
VH: DVQLQESGGGLVQPGGSLKLSCTASRRIFTFTAAGWYRQAPGQQREFVAVIANGGHTNYADSVKGRFTISRDNAKNTVYLQMNSLKPEDTAVYYCNTPPAFGSWGPGTQVTVSS
With B7, the binding result in assay [1] and in assay [2] was “binds” throughout.

B8: Ab01-126M1 (antibody, V domains shown)
VH: B7 VH with K19R, R26T, T32S, Q43K, A52T, N53G, N76D
Consider B8, for which the binding result in assay [1] and in assay [2] was “binds” each time.

B9: positive control antibody 2C4 (antibody, V domains shown)
VH: EVHLQQSGPELEKPGVSVKISCKASGFSFTDYNMNWVKQSSGKSLEWIGNIDPYYGRINYNQKFKGKATLSVDKSSSTAYMHLKSLTSEDSAVYYCATGAYTSGYSWFAYWGQGTLVTVSS
VL: ENVLTQSPGIMAASLGEKVTMTCSASSSVSSSYLHWYQQRSGASPKPLIHRTSNLASGVPARFSGSGSGTSYSLTISSVEAEDDATYYCQQWSGYPFTFGSGTKLEIK
notes: also called positive control 2C4; positive antibody
In assay [3], B9 came in with a concentration giving a half-maximal response (EC50) of 0.281 nM. The “EC50 (nM), promoting the killing effects of NK92MI on target cells (K562 overexpressing human HHLA2)” value in assay [4] stood at 0.192 nM.

B10: Ab01-110M1 (antibody, V domains shown)
VH: DVQLQESGGGLVQTGGSLRLSCAAPGFTLDDYAIGWFRQAPGKERERISCITSSTNRTYYANSVKGRFTISRDSAKNTVYLQMNSLKPEDTAVYYCAAEPILCVLWSAGGAMDYWGKGTQVTVSS
For B10, the binding result in assay [1] and in assay [2] was “binds” each time.

B11: Ab01-121M1 (antibody, V domains shown)
VH: DVQLQESGGGLVQPGGSLRLSCAASGSRFSFNVMGWHRQAPGKQRELVALISSGGTANYADSVKGRFTISRDNAGNTMYLQMNTLKPEDTAVYYCTATTPVGQYWGQGTQVTVSS
Consider B11, for which the binding result in assay [1] and in assay [2] was “binds” throughout.

B12: Ab01-7M2 (antibody, V domains shown)
VH: DVQLQESGGGLVQPGGSLRLSCAASGFTFSSTPMYWYRQAPGKERDFVAIMAPGGYEDIADSVRGRFSISRDNGNNTMYLQMNSLKPEDTALYYCRALNSWGQGTQVTVSS
On to B12, for which the binding result in assay [1] and in assay [2] was “binds” in each case.

The record behind these values is patent EP4778940A1 (Artivila (ShenZhen) Innovation Center, Ltd., dated 2026).
